Assay: yeast display, Sf9 membrane polyspecificity reagent, FACS + sequencing; frameworks hold sequencing errors
Procedure, shortened: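 After 36–48 hours of galactose induction, yeast (Saccharomyces cerevisiae BJ5465) displaying a synthetic nanobody library were stained at 4 °C for 1 hour with 10% biotinylated, detergent-solubilized Sf9 membrane reagent. Streptavidin microbeads enriched the stained cells before FACS sorting into low and high (top ~1%) gates on anti-HA and streptavidin fluorescence. Each clone's polyreactivity label reflects its gate of origin.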

Sequence | polyreactivity (PSR sort gate)
QVQLVESGGGLVQAGGSLRLSCAASGSTFDQNAMGWYRPAPGKERELVAAISGSGTRTYYADSVKGLFTISRDNAKKTVYLQMNSLKPEDTAVYYCRTGSGEYDYWGQGTQVTVSS | high polyreactivity
QVQLVESGVGLVQAGGSLRLSCAASGFTLGRNAMGWYRQAPGKERELVASISGRGGSSYYADSVKGRFTISRDNAKNSVYLQMNSLKPEDTAVYYCAARGVSGKYYYWGQGTQVTVSS | high polyreactivity
QVQLVESGGGLVQAGGSLRLSCAASGYNFDHYAMGWYRQAPGKERELVAAISRSAGSTYYADSVKGRFTISRDNAKNTVYLQMTSLKTEDTAVYYCNTVFRWIDRVLGYEYWGQGTQVTVSS | high polyreactivity
QVQLVESGGGLVQAGGSLRLSCAASGITFYVKDMGWYRQAPGKEREFVAAISYRGGSTYYADSVKGRFTISRDNAKNTVYLQMNSLKPEDTAVYYCAADYNYWSPHRYDYWGQGTQVTVSW | low polyreactivity
HVQLVESGAGLVQAGGSLRLSCAASGSTLRYYAMGWYRQAPGKERELVAAISTVGSTYYADSVKCRFTISRDNAKNTVNLQMNILKPEDTAVYYCAAEPWANTPGDAGSPFDYWGQGTQVTVSS | low polyreactivity
QVQLVESGGGLVQAGGSLRLSCAASGSTFGKYAMGWYRQAPGKERELVAAITTGGNTYYADSVKGRFTISRDNAKNSVYLQMNSLKPEDTAVYYCNAKRSFRVDYWGQGTQVTVSS | low polyreactivity
QVQLVESGGGLVQAGGSLRLSCAASGSTFDYNAMGWYRQAPGKERELVAAITTVGITYYADSVKGRFTISRDNAKNTVYLQMNSLKPEDTAVYYCAARCVRYGGRYDYWGQGTQVTVSS | high polyreactivity
QVHLLESGGGLLQAGGSLLISCAAAGRTFGQNAMGWSRQAPGKARELVASIRSGGITDYADSVKGRYTISRDNAKYSVYLQMNSLKPEDTAVYYCNAEGVWWSTRYDSWGQGTQVTVSS | low polyreactivity
QVQLVESGGGLVQAGGSLRLSCAASGRTFNRYAMGWYRQAPGKERELVAAINSVGSTYYADSVKGRFPISRDNAKNTVYLQMNSLKPEDTAVYYCNAVQGSRFGYWGQGTQVTVSS | high polyreactivity
QVQLVESGGGLVQAGGSLRLSCADSGFIIFCYAMGWYRQAPGKERELVAAITSGGSTYYAYSVKGRFTISRDNAKNTVYLQMNSLKPEDTAVYYCAAVRWYGSKRYGYWGQGTQVTVSS | high polyreactivity
QVQLVESGGGLVQAGGSLRLSCAASGRIFFRNAMGWYRQAPGKEREFVAAINWSGGSTYYADSVKGRFTISRDNAKNTVYLQMNSLKPEDTAVYYCAARGSRGGRRGATASMDYWGQGTQVTVSS | high polyreactivity
QVQLVVSGGGLVQAGGSLRLSCAASGITFYYNAMGWYRQAPGKEGEVVAAITRRGGSTYYADSVKGRFTISRDNAKNTVYLQMNSLIPEDTAVYYCAKYIYGYKDSPLGDDYWGQGTQVTVSS | high polyreactivity
QVQLVESGGGLVQAGGSLRLSCAASGFTFKGNAMGWYRQAPGTERELVATITQSAGSTYYADSVKGRFTISRDNAKNTVYLEMNSLKPEDTAVYYCNADPITLYYYSWYNYWGQGTQVTVSS | low polyreactivity
QVQLVESGGGLVQAGGSLRLTCAASGRTFASNDMGWYRQAPGKEMELVADINNGARTYYADSVKGRFTISRDNAKNTVYLQMNSLKPEDTAVYYCAARRYGKQVRLYGYWGQGTQVTVSS | high polyreactivity
QVQLVESGGGLVQAGGSLRLSCAASGRTFTQYAMGWYRQAPGKEREMVAAISWRGGSTYYADSVKGRFTISRDNAKNTVYVQMNSLKPEDTAVSYCAKRYFRGYPLYDYWGQGTQVTVSS | high polyreactivity
QVQLVESWGGLVQAGGSLRLSCAASGRTFHSYAMGWYRQAPGKERELVAAITSSGGSTYYADSVKGRFTISRDNAKNTVYLQMNSLKPEDTAVYYCAAPYRYLSRGGEMGYWGQGTQVTVSS | high polyreactivity
QVQIVESGGGLVQAGGSLRLSCAASGFTFYYYAMGWYRQAPGKERELVAAIDTGGSTNYADSVKGRFTISRDNAKNTVYLQMNRLKPEDTSVYYCNADTPDHYGHYDYWGQGTQVTVSS | low polyreactivity
QVQLVESGGGLVQAGGSLRLSCAASGGTFERNAMGWYRPAPGKERELVAAITGSGGRTYYADSVKGRFTISRDNAKNTVYLQMNSLKPEDTAVYYCAAVPWWKYNYWGQGTQVTVSS | high polyreactivity
QVQLVESGGGLVQEGGSLRLICAASGRTFGTNAMGWYRQAPAKERELVAGINYSDGSTYYADSVKGRFTITRDNAKNTVYLQMNSMKPEDTAVYYCAADPGWAWWELNYWGQGTQVTVSS | low polyreactivity
QVQLVESGGGLVQAGGSLRLSCAASGRTFQYYTMGWYRQAPGKERELVAAISSSGVSTYYADSVKGRFTISRDNAKNTVYLQMNSLKPEDTAVYYCNAVSRARYHAAYDSWGQGTQVTVSS | high polyreactivity
QVQLVESGGGLVQAGGSLRLSCAASGSTFFYSMGWYRKAPRKERELVAAISWIDSITYYADSVKGRFTISRDNAKNTVYLQMNSLKPEDIAVYYCAAEGQNEGYDYWVQGTQVTVSS | high polyreactivity
QVQLVESGGGLVQAGGSLRLRCAASGITFKTYAMGWYRQAPGKERELVATINRGSRTNYADSVKGRFTISRDNAKNTVYLKMNSLKPEDTAVYYCAAHYTTFIPSPDGDYLGQGTQVTVSS | low polyreactivity

Sequence | polyreactivity (PSR sort gate)
QVQLVESGGGLVQAGGSLRLSCAASGRIFHPYAMGWYRPAPGKERELVAAITNSGGITYADSVKGRFTISRDNAKNTVYLQMNSLKPEDTSVYYCNTATNRFHYKYRKPYDYWGQGTQVTVSS | low polyreactivity
QVQLVESGGGLVQAGGSLRLSCAASGRIFPLYTMGWYRQAPGKERELVAAISVSGGRTSYADSVKGRFTISRDNAKNTVYLQMNSLKPEDTAVYSCAARYYVTSYFSSMYYWGQGTQVTVSS | high polyreactivity
QVQLVESGGGLVQAGGSLRLSCAASGYTFYFYARGWYRQAPGKERELGAAITGGGTTSYADSVKGRFTISRDNAKNTVYLQMNSLKPEDTAVYYCNLLFADKSDYWGQGTQVTVSS | low polyreactivity
QVQLVESGGGLVQAGGSLRLSCAASGSTFYSYGMGWYRQAPGKERELVAAITEDGDTTYYADSVKGLYTISRDNAKNTVYLQMNSLKPEDTAVYYCAAETYYLDDYWGQATQVTVSS | high polyreactivity
QVQLVESGGGLVQAGGSLRLSCAASGFIFTGYAMGWYRQAPGKERELVASISSGGSTYYADSVKGRFTISRDNAKNTVYLLMNSLKPEDTAVYYCNASVSLGRYPGNEYDYEYWGQGTQVTVSS | low polyreactivity
QVQLVESGGGLVQAGGSLRLSCAASGSIFYYYTMGWYRQAHGKESEFVATMTYSGGSTYYADSVKGRFTISRDNAKNTVYLQMNSLKPEDTAVYYCNARPRYYDWVDYWGQGTQVTVSS | low polyreactivity
QVQLVESGGGLVQAGGSLRLSCAASGSIFPWNAMGWYRQAPGKERELVAGINESGGSTYYADSVKGRFTISRDNAKNTVYLQMNSLKPEDTAVYYCAADGYPSVGDDYWGQGTQVTVSS | low polyreactivity
QVQLVESGGGLVQAGGSLRLSCAASGSIFYWYAMGWYRQAPGKERELVAAITRAGSTNYADSVKGRFTISRDNAKNTVYLQMNSLKPEDTAVYYCAVAVTSYSSKKLYYWGQGTQVTVSS | low polyreactivity
QVQLVESGGGLVQAGGSLRLSCAASGRTFVYYAMGWYRQAPGKEREFVAAISRSGGRTSYADSVKGRFTISRDNAKNTVYLQMNSLKPEDTAVYYCAAEKRTQPSSREYYWGQGTQVTVSS | high polyreactivity
QVQLVESGGGLVQAGGSLRLSCAASGITFSHNAMGWYRQAPGKERELVAAITRSGGSTYYADSVKGRFTISRDNAKNTVYLQMNCLKPEDTAVYYCATEDYYRQYGYWSLSRMDHWGQGTQVTVSS | low polyreactivity
QVQLVVSGGGLVQAGGSLRLSCAASGSIFKKYAMGWYRQAPGKERELVAAITRGTYYADSVKGRFTISRDNAKNTVYLLMNSLNPEDTAVYYCNREYWVRGYYRVRGEYDYWGQGTQVTVSS | low polyreactivity
QVQLVESGGGLVQAGGSLRLSCAASGSIFWWNAMGWYRQAPGKERELVAAINWSTGRTYYADSVKGRFTISRDNAKNTVYLQMNSLKPEDTAVYYCNADSKSSYYWYLWYNYWGQGTQVTVSS | low polyreactivity
QVQLVESGGGLVQAGGRLPLSCAASGSTIYINAMGWYRQPPGKQRELVAPISYSGGSSYFADSVKGRFTISRDYAKNTVYFQKNSLIPEDTRVYYCYARGLQSFYPGYWFRGDFWGQGTQVTVSS | high polyreactivity
QVQLVESGGGLVQAGGSLRLSCAASGSTFFRYAMGWYRQAPGKERELVAVINRGGSTYYADSVKGRFTISRDNAKNTVYLQMNSLKPEDTAVYYCAKRVFYPGAYRYYYWGQGTQVTVSS | high polyreactivity
QVQLVESGGGLVQAGGSLRLSCAASGIIFGTYTMGWYRQAPGKERELVAAITYSGGRTYYADSVKGRFTISRDNAKNTVYLQMNSLKPEDTAVYYCAAYRSSWGYSPYDYWGQGTQVTVSS | high polyreactivity
QVQLVESGGALVQAGGSLRLSCAASGFIFDAYAMGWYRQAPGKERELVPAIDYSGGNTYYADSVKGRFTISRDYAKNTVYLQMNSLKTEDTAVYYCNADYAGSFWSREYDYWGQGTQVTVSS | low polyreactivity
QVQLVESGGGLVQAGGSLRLSCAASGNTFAGNAMGWYRLAPGKERELVAAISYSGGSTYYADSVKGRFTISRDNAKNNVYLQMNSLKPEDTAVYYCNAPQPGNGRTRSRYYYWGQGTQVTVSS | high polyreactivity
QVQLVESGGGLVQAGGSLRLSCAASGRIFYPYAMGWYRQAPGKERELVAAITWSGGSTYYADSVKGRFTISRDNAKNTVYLQMNSLKPEDTAVYYCAKDHSYGAYYYWGQGTQVTVSS | high polyreactivity
HVQLVESVGGLVQAGGSLRLSCAASGSTFFYNAMAWYRQAPGKERELVAAITVTGNSTYYADSVKGRFTISRDNAKNTVYLQMNSLKPEDTAVYYCNTSLKRRRLRFNYWGQGTQVTVSS | low polyreactivity
QVQLVESGGGLVKAGGSLRLRGAASGSIFGRYAMGWYRQAPGKERELVAAISKNGGSTYYADSVKGRFTISRDNAKNTVYLQMNILKPEDTAVYYCNTVRYSGNYRDQEGDYWGQGTQVTVSS | high polyreactivity
QVQLVESGGGLVQAGGSLRLSCAASGSTFVGYAMGWYRQAPGKERELVADIDSIGGSTYYADSVNGRFTISRDNAKNTVYLQMNSLKPEDTAVYYCAARRFDTALVLYDYWGQGTQVTVSS | low polyreactivity

Reference: the nanobody polyreactivity screen of Harvey et al. (2022)
